Results on 2 molecules are retold here after paper PMC9259484 (Nature, 2022).

This assay has as its target SARS-CoV-2 Wuhan-Hu-1 receptor binding domain (RBD), Spike (S) protein residues 319-539 (SARS-CoV-2, UniProt P0DTC2). Put plainly: BLI. The note with it: both partners purified.

B1: C105 (antibody, V domains shown)
VH: QVQLVESGGGLIQPGGSLRLSCAASGFTVSSNYMSWVRQAPGKGLEWVSVIYSGGSTYYADSVKGRFTISRDNSKNTLYLQMNSLRAEDTAVYYCARGEGWELPYDYWGQGTLVTVSS
VL: QSALTQPPSASGSPGQSVTISCTGTSSDVGGYKYVSWYQQHPGKAPKLMIYEVSKRPSGVPDRFSGSKSGNTASLTVSGLQAEDEADYYCSSYEGSNNFVVFGGGTKLTVL
In the case of B1, the binding result is reported as “binds”.

B2: C118 (antibody, V domains shown)
VH: QVQLVESGGGVVQPGRSLRLSCAASGFTFSNYAMHWVRQAPGKGLEWVAVISYDGSNKYYADSVKGRFTISRDNSKNTLYLQMNSLRAEDTAIYYCASGYTGYDYFVRGDYYGLDVWGQGTTVTVSS
VL: QPVLTQSPSASASLGASVKLTCTLSSGHSSYAIAWHQQQPEKGPRYLMKLNTDGSHSKGDGIPDRFSGSSSGAERYLTISSLQSEDEADYYCQTWGTGILVFGGGTKLTVL
Regarding B2, the binding result was “binds”.
